Where no end group is shown, it is not given here.
Tests used:
[1] = target: T1, Anti-PSMA Fab; assay: clonal phage ELISA on biotinylated PSMA Fab captured on neutravidin plates, anti-M13-HRP detection;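 note: crude clonal phage supernatants added to wells preincubated with PSMA antigen or with blocking buffer only (no wash between), briefly incubated, then washed before detecting bound phage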
T1 construct: also called 006 PSMA Fab
Description: (§1) Clonal phage were harvested as crude supernatants and screened via standard ELISAs. […] Prior to the addition of clonal phage. wells were incubated with blocking buffer and PSMA antigen or blocking buffer alone. Without washing or aspirating, clonal phage supernatants were then added to the wells and incubated for a short time. Wells were then washed followed by detection of bound phage using a horse radish conjugated anti-M13 antibody.

[2] = target: T1, Anti-PSMA Fab; assay: clonal phage ELISA on captured PSMA Fab, wells pre-incubated with PSMA antigen as competitor, anti-M13-HRP detection;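 note: crude clonal phage supernatants added without washing after the PSMA preincubation, comparison wells received blocking buffer alone without PSMA, bound phage read after washing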
Description: as §1

[3] = target: T2, PSMA Fab (006 PSMA Fab); assay: phage ELISA; biotinylated PSMA Fab on neutravidin plate pre-incubated with PSMA antigen as competitor, anti-M13 HRP detection;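 note: crude clonal phage supernatants tested, compared against control wells pre-incubated with blocking buffer only, without PSMA antigen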
T2 construct: also called Anti-PSMA Fab; anti-PSMA Fab
Description: as §1

[4] = target: T2, PSMA Fab (006 PSMA Fab); assay: phage ELISA; biotinylated PSMA Fab on neutravidin plate, clonal phage supernatant, anti-M13 HRP detection;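 note: wells preincubated with PSMA antigen in blocking buffer or with blocking buffer only before clonal phage were added for a short incubation, then bound phage detected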
Description: as §1

[5] = target: T3, PSMA Fab (SEQ ID NOs: 19, 20); assay: clonal phage ELISA; biotinylated PSMA Fab captured on neutravidin plate, bound phage detected with anti-M13-HRP
T3 construct: also called Anti-PSMA Fab; 006 PSMA Fab
Description: as §1

[6] = target: T3, PSMA Fab (SEQ ID NOs: 19, 20); assay: clonal phage ELISA; captured biotinylated PSMA Fab pre-incubated with PSMA antigen as competitor, anti-M13-HRP detection
Description: as §1

[7] = target: T4, PSMA Fab (006 PSMA Fab); assay: clonal phage ELISA on biotinylated PSMA Fab captured on neutravidin plates, anti-M13-HRP detection;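 note: crude clonal phage supernatants added to wells preincubated with PSMA antigen or with blocking buffer only (no wash between), briefly incubated, then washed before detecting bound phage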
T4 construct: also called Anti-PSMA Fab
Description: as §1

[8] = target: T4, PSMA Fab (006 PSMA Fab); assay: clonal phage ELISA on captured PSMA Fab pre-incubated with PSMA antigen as competitor, anti-M13-HRP detection;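 note: wells blocked with buffer plus PSMA antigen before phage addition, with blocking buffer alone as the no-competitor control, bound phage detected after washing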
Description: as §1

| Binder | Phage binding ELISA signal, Anti-PSMA Fab [1] | Phage binding ELISA signal, Anti-PSMA Fab with PSMA antigen [2] | Phage binding ELISA signal, Anti-PSMA Fab [5] | Phage binding ELISA signal, Anti-PSMA Fab with PSMA antigen [6] | also measured |
| --- | --- | --- | --- | --- | --- |
| VEYLCKPVWMCQGF (Clone of the Peptide-180 optimisation library, tested as clonal phage supernatant) [Phage-3797] | 1.31 | 0.0609 |  |  |  |
| SVVKCVPSWMCTGF [Phage-3785] |  |  |  |  | Phage binding ELISA signal, Anti-PSMA Fab in presence of PSMA [3]: 0.0729; Phage binding ELISA signal, Anti-PSMA Fab [4]: 1.32 |
| AYPMCSPAWMCAGF (cysteine pairing not given here; also: displayed on phage as fusion to pIII, junction not given here, Tested as clonal phage supernatant; not shown: pIII coat protein of the bacteriophage to which the peptide is fused) [Phage-3812 (Peptide-180 library clone, SEQ ID NO: 4128)] |  |  | 1.29 | 0.0779 |  |
| VHMACTPWWMCVGF (Clone of the Peptide-180 optimisation library, tested as clonal phage supernatant) [Phage-3791] | 1.32 | 0.0962 |  |  |  |
| GGPMCKPVWMCQGF (Tested as clonal phage supernatant; not shown: pIII coat protein of the bacteriophage to which the peptide is fused) [Phage-3803 (Peptide-180 library clone, SEQ ID NO: 4119)] |  |  | 1.3 | 0.0735 |  |
| LKVECRPLWMCEGF (Clone of the Peptide-180 optimisation library, tested as clonal phage supernatant) [Phage-3787] | 1.32 | 0.075 |  |  |  |
| HMIHCVPDWMCEGF (Tested as clonal phage supernatant; not shown: pIII coat protein of the bacteriophage to which the peptide is fused) [Phage-3805 (Peptide-180 library clone, SEQ ID NO: 4121)] |  |  | 1.3 | 0.0847 |  |
| EWLVCKPAWMCLGL (Tested as clonal phage supernatant; not shown: pIII coat protein of the bacteriophage to which the peptide is fused) [Phage-3801 (Peptide-180 library clone, SEQ ID NO: 4117)] |  |  | 1.3 | 0.0609 |  |
| MSMYCVPTWMCNGF (Clone of the Peptide-180 optimisation library, tested as clonal phage supernatant) [Phage-3798] | 1.31 | 0.0602 |  |  |  |
| EFKWCVPDWMCYGV (cysteine pairing not given here; also: displayed on phage as fusion to pIII, junction not given here) [Phage-3814] |  |  |  |  | Phage binding ELISA signal, Anti-PSMA Fab [7]: 1.29; Phage binding ELISA signal, Anti-PSMA Fab with PSMA antigen [8]: 0.0589 |
| FAFDCVPKWMCTGF (Clone of the Peptide-180 optimisation library, tested as clonal phage supernatant) [Phage-3793] | 1.31 | 0.0829 |  |  |  |
| MLRSCVPPWMCAGF (cysteine pairing not given here; also: displayed on phage as fusion to pIII, junction not given here, Clone of the Peptide-180 optimisation library, tested as clonal phage supernatant) [Phage-3788] | 1.32 | 0.0821 |  |  |  |
| LGVQCKPTWMCQGF (Tested as clonal phage supernatant; not shown: pIII coat protein of the bacteriophage to which the peptide is fused) [Phage-3808 (Peptide-180 library clone, SEQ ID NO: 4124)] |  |  | 1.29 | 0.0911 |  |
| LVARCVPEWMCAGF (cysteine pairing not given here; also: displayed on phage as fusion to pIII, junction not given here) [Phage-3781] |  |  |  |  | Phage binding ELISA signal, Anti-PSMA Fab in presence of PSMA [3]: 0.102; Phage binding ELISA signal, Anti-PSMA Fab [4]: 1.33 |
| DQAACVPAWMCTGF (Tested as clonal phage supernatant; not shown: pIII coat protein of the bacteriophage to which the peptide is fused) [Phage-3806 (Peptide-180 library clone, SEQ ID NO: 4122)] |  |  | 1.3 | 0.117 |  |
| VVSHCKPIWMCSGF (Tested as clonal phage supernatant; not shown: pIII coat protein of the bacteriophage to which the peptide is fused) [Phage-3807 (Peptide-180 library clone, SEQ ID NO: 4123)] |  |  | 1.29 | 0.083 |  |
| DLIYCRPAWMCDGF (Clone of the Peptide-180 optimisation library, tested as clonal phage supernatant) [Phage-3795] | 1.31 | 0.0679 |  |  |  |
| VEVRCVPAWMCEGL [Phage-3783] |  |  |  |  | Phage binding ELISA signal, Anti-PSMA Fab in presence of PSMA [3]: 0.0698; Phage binding ELISA signal, Anti-PSMA Fab [4]: 1.33 |

| Binder | Phage binding ELISA signal, Anti-PSMA Fab [1] | Phage binding ELISA signal, Anti-PSMA Fab with PSMA antigen [2] | Phage binding ELISA signal, Anti-PSMA Fab [5] | Phage binding ELISA signal, Anti-PSMA Fab with PSMA antigen [6] | also measured |
| --- | --- | --- | --- | --- | --- |
| PGASCVPAWMCDGF [Phage-3784] |  |  |  |  | Phage binding ELISA signal, Anti-PSMA Fab in presence of PSMA [3]: 0.0653; Phage binding ELISA signal, Anti-PSMA Fab [4]: 1.33 |
| ASISCIPDWMCHGF [Phage-3815] |  |  |  |  | Phage binding ELISA signal, Anti-PSMA Fab [7]: 1.28; Phage binding ELISA signal, Anti-PSMA Fab with PSMA antigen [8]: 0.0872 |
| MERSCIPDWMCLGF (Clone of the Peptide-180 optimisation library, tested as clonal phage supernatant) [Phage-3796] | 1.31 | 0.0541 |  |  |  |
| LELLCRPSWMCEGF (cysteine pairing not given here; also: displayed on phage as fusion to pIII, junction not given here, Tested as clonal phage supernatant; not shown: pIII coat protein of the bacteriophage to which the peptide is fused) [Phage-3800 (Peptide-180 library clone, SEQ ID NO: 4116)] |  |  | 1.3 | 0.0665 |  |
| TVKQCVPEWMCVML (Clone of the Peptide-180 optimisation library, tested as clonal phage supernatant) [Phage-3794] | 1.31 | 0.104 |  |  |  |
| SFQRCEPEWMCYGF (Tested as clonal phage supernatant; not shown: pIII coat protein of the bacteriophage to which the peptide is fused) [Phage-3811 (Peptide-180 library clone, SEQ ID NO: 4127)] |  |  | 1.29 | 0.0768 |  |
| LELACRPMWMCQGF (Clone of the Peptide-180 optimisation library, tested as clonal phage supernatant) [Phage-3799] | 1.31 | 0.0709 |  |  |  |
| EQVLCRPEWMCIGF (Clone of the Peptide-180 optimisation library, tested as clonal phage supernatant) [Phage-3789] | 1.32 | 0.0856 |  |  |  |
| IRALCEPSWMCTGF (Tested as clonal phage supernatant; not shown: pIII coat protein of the bacteriophage to which the peptide is fused) [Phage-3804 (Peptide-180 library clone, SEQ ID NO: 4120)] |  |  | 1.3 | 0.0766 |  |
| EMIRCEPRWMCSGF (cysteine pairing not given here; also: displayed on phage as fusion to pIII, junction not given here, Clone of the Peptide-180 optimisation library, tested as clonal phage supernatant) [Phage-3786] | 1.32 | 0.0656 |  |  |  |
| VSQLCIPEWMCIGI (Clone of the Peptide-180 optimisation library, tested as clonal phage supernatant) [Phage-3790] | 1.32 | 0.08 |  |  |  |
| DARLCKPTWMCMGL (Tested as clonal phage supernatant; not shown: pIII coat protein of the bacteriophage to which the peptide is fused) [Phage-3809 (Peptide-180 library clone, SEQ ID NO: 4125)] |  |  | 1.29 | 0.0886 |  |
| YSNFCVPHWMCSGF [Phage-3782] |  |  |  |  | Phage binding ELISA signal, Anti-PSMA Fab in presence of PSMA [3]: 0.0679; Phage binding ELISA signal, Anti-PSMA Fab [4]: 1.33 |
| GDQMCIPLWMCEGF (Tested as clonal phage supernatant; not shown: pIII coat protein of the bacteriophage to which the peptide is fused) [Phage-3810 (Peptide-180 library clone, SEQ ID NO: 4126)] |  |  | 1.29 | 0.106 |  |
| HMQYCIPQWMCHGF (Clone of the Peptide-180 optimisation library, tested as clonal phage supernatant) [Phage-3792] | 1.32 | 0.0825 |  |  |  |
| EVLRCVPRWMCEKF (Tested as clonal phage supernatant; not shown: pIII coat protein of the bacteriophage to which the peptide is fused) [Phage-3802 (Peptide-180 library clone, SEQ ID NO: 4118)] |  |  | 1.3 | 0.0658 |  |
| YTAMCVPVWMCNVL (cysteine pairing not given here; also: displayed on phage as fusion to pIII, junction not given here, Tested as clonal phage supernatant; not shown: pIII coat protein of the bacteriophage to which the peptide is fused) [Phage-3813 (Peptide-180 library clone, SEQ ID NO: 4129)] |  |  | 1.29 | 0.0695 |  |

Source: patent publication US20260242478A1 (published 2026)
